Values quoted from earlier work, collected in PMC9213791.

Molecular target: cardiac troponin C N-terminal domain (cNTnC) N-terminal domain (Homo sapiens) (UniProt P63316)
Sequence (P63316 1-89): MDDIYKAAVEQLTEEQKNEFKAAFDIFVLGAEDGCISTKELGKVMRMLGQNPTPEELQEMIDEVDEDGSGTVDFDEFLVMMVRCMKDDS

Kd: 154 µM
Substance: cardiac troponin I switch peptide switch peptide (from UniProt P19429)
